Experimental data: US20130196320A1, “METHOD FOR IMPROVING CLEAVAGE OF DNA BY ENDONUCLEASE SENSITIVE TO METHYLATION” (CELLECTIS, priority 2010, published 2013)

Columns and labels:
I-CreI wild type [1] = target: T1, I-CreI wild type (Chlamydomonas reinhardtii, UniProt P05725 SEQ:1-163); assay: FP; 400 mM NaCl, 10 mM CaCl2, pH8, 25 C; conditions: tags: C-terminal 6xHis, E. coli BL21; chain copies: 2 (inferred); label: 5' fluorescein on forward strand
T1 sequence: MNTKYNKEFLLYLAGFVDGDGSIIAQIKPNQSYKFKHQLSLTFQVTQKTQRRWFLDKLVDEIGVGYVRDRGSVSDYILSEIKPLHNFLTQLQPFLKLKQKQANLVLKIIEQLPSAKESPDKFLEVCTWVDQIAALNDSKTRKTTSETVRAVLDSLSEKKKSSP
Description: (§1) FIG. 4: Spectrofluorimetric titration of fluorescein-labeled C1234 by I-Cre I wild type. 25 nM of C1234 duplex was incubated with increasing concentrations of I-Cre I [from 0 to 400 nM, only 0-80 nM shown] in binding buffer (10 mM Tris-HCl, 400 mM NaCl, 10 mM CaCl₂, 10 mM DTT, pH8) at 25° C. After 30 minutes incubation, the fluorescence anisotropy of the mixture was recorded with a Pherastar Plus (BMG Labtech) operating in fluorescence polarization end point mode with excitation and emission wavelengths set to 495 and 520 nm respectively. Normalized fluorescence anisotropy is plotted as a function of active I-Cre I concentration. Apparent dissociation constant were determined by fitting raw data by an hyperbolic function (Aₓ=(A_{∞}*[Meganuclease])/(Kd+[Meganuclease]) with Aₓ, the fluorescence anisotropy value obtained at a given meganuclease concentration, A_{∞}, the fluorescence anisotropy value obtained at saturating concentration of meganuclease and Kd the dissociation constant of the equilibrium studied).
Fluorescein labeled C1234 oligonucleotides were synthesized and HPLC-purified by Eurogentec. To prepare C 1234 duplex corresponding to I-Cre I double strand DNA wild type target, C1234 forward (SEQ ID NO: 31, “a” strand below) labeled with Fluorescein on its 5′ end was mixed with 1 equivalent of C1234_reverse (SEQ ID NO: 32, “b” strand below) in 100 mM Tris-HCl, 50 mM EDTA, 150 mM NaCl, pH8. The mixture was heated to 95° C. for 2 min and then cooled down to 25° C. over 1 hour. C1234 duplex was eventually purified by anion exchange chromatography using a miniQ PE column (GE healthcare) pre-equilibrated with buffer A (20 mM Tris-HCl, pH7.4). Single stranded oligonucleotides and other contaminants were first discarded using a 0 to 360 mM NaCl step gradient and elution of pure C1234 duplex was performed with a 360-1000 mM NaCl linear gradient (5 column volumes). C 1234 duplex and fluorescein final concentrations were assessed by spectrophotometry using their respective extinction coefficients ε₂₆₀ₙₘ=62900 M⁻¹ cm⁻¹ and ε₄₉₅ₙₘ=83000 M⁻¹ cm⁻¹. […]

[2] = target: T2, XPC4 meganuclease (I-CreI-derived) (Artificial Sequence); assay: FP; 10 mM CaCl2, 150 mM NaCl, pH8, 25 C
T2 chain: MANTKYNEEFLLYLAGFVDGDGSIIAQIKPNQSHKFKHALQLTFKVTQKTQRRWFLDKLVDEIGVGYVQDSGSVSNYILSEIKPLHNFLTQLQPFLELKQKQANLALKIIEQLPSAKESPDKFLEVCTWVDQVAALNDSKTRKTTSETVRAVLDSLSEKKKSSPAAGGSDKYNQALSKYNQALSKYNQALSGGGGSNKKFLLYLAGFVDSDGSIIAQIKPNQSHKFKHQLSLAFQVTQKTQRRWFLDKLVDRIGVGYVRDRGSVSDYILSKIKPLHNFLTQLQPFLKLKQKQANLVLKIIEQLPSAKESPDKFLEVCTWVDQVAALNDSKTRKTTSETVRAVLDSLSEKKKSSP

I-CreI D75N = target: T3, I-CreI D75N (UniProt P05725 SEQ:1-167); assay: cleavage_in_vitro; relative to unmethylated C1221; conditions: tags: C-terminal 6xHis, E. coli BL21; chain copies: 2 (inferred)
T3 chain: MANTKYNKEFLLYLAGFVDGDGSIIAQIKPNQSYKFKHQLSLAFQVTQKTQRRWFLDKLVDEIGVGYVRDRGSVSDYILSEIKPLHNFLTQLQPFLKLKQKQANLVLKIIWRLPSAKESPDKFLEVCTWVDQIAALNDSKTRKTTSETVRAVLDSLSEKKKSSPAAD
Description: FIG. 3: In vitro cleavage of unmethylated or methylated C1221 by I-CreI D75N. 50 nM C1221 containing either 0, 1, 2 or 3 methylated CG was incubated with increasing concentrations of I-CreI D75N (0 to 2 μM) in reaction buffer (10 mM Tris-HCl, 150 mM NaCl, 10 mM MgCl₂, pH8) for an hour at 37° C. The reaction was stopped and cleaved and uncleaved C1221 (top and bottom panel respectively) were quantify and plotted as function of I-CreI D75N concentration.
To investigate the influence of C1221 methylation on the nuclease activity of I-CreI, an in vitro cleavage assay with either unmethylated or fully methylated C1221 duplex (SEQ ID NOs: 4-5 and 12-13 respectively) was performed. A constant amount of C1221 duplex (50 nM) was incubated with increasing concentration of I-CreI (0 to 2 μM) in a total volume of 25 μL of reaction buffer (10 mM Tris-HCl, 150 mM NaCl, 10 mM MgCl₂, pH8). Cleavage reaction was allowed to proceed 1 hour at 37° C. and then stopped by addition of 5 μL of 6× stop buffer (45% glycerol, 95 mM EDTA, 1.5% (w/v) SDS, 1.5 mg/mL proteinase K and 0.048% (w/v) bromophenol blue) followed by an hour incubation at 37° C. Cleaved and uncleaved DNA products were separated by PAGE using a TGX Any kD precast gel (Bio-Rad), stained with SYBR Green and then quantified using Quantity One software (Bio-Rad).
To investigate the influence of C1221 methylation on the nuclease activity of I-CreI D75N, in vitro cleavage assay with C1221 duplex containing either 0, 1, 2 or 3 methylated CG (SEQ ID NOs: 4-5, 6-7, 8-9, 10-11 respectively) was performed, according to the procedure described for I-CreI wild type.

I-CreI wild type [3] = target: T1, I-CreI wild type; assay: FP; 10 mM Tris pH8, 400 mM NaCl, 10 mM CaCl2, 10 mM DTT, 25 C; conditions: tags: C-terminal 6xHis, E. coli BL21; chain copies: 2 (inferred); label: 5' fluorescein on forward (a) strand
Description: as §1
(§2) Fluorescein labeled C1234 oligonucleotides were synthesized and HPLC-purified by Eurogentec. […] C 1234 duplex and fluorescein final concentrations were assessed by spectrophotometry using their respective extinction coefficients ε₂₆₀ₙₘ=62900 M⁻¹ cm⁻¹ and ε₄₉₅ₙₘ=83000 M⁻¹ cm⁻¹. […]

I-CreI wild type [4] = target: T1, I-CreI wild type; assay: FP; 400 mM NaCl, 10 mM CaCl2, pH8, 25 C; no saturation; conditions: tags: C-terminal 6xHis, E. coli BL21; chain copies: 2 (inferred); label: 5' fluorescein on forward strand
Description: as §1, §2

[5] = target: T4, ADCY9 meganuclease (I-CreI-derived) (Artificial Sequence); assay: FP; apparent Kd, sigmoidal binding; 10 mM CaCl2, 150 mM NaCl, pH8, 25 C
T4 chain: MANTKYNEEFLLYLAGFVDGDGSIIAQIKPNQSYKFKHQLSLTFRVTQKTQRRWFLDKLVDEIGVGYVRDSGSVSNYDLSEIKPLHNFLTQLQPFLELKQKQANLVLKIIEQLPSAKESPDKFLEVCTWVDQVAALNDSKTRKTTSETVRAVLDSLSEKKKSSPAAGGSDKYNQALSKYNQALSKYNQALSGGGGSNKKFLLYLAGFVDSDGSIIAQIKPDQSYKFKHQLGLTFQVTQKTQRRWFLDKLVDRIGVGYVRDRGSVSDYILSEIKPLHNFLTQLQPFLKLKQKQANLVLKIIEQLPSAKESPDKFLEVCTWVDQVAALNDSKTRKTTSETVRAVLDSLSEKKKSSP

[6] = target: T4, ADCY9 meganuclease (I-CreI-derived); assay: FP; 10 mM CaCl2, 150 mM NaCl, pH8, 25 C
[7] = target: T2, XPC4 meganuclease (I-CreI-derived); assay: FP; 10 mM CaCl2, 150 mM NaCl, pH8, 25 C; not significantly different from unmethylated

B1: C1234_Me-6a/-3a (dsDNA)
DNA 1: TCAAAACGTCGTGAGACAGTTTGG
DNA 2: CCAAACTGTCTCACGACGTTTTGA
modifications: 5mC at -6a, -3a
Kd (I-CreI wild type [1]): ≤ 2.5 nM

B2: XPC4.1 (dsDNA)
DNA 1: TCGAGATGTCACACAGAGGTACGA
DNA 2: TCGTACCTCTGTGTGACATCTCGA
Kd [2]: 108 nM

B3: C1234_Me-2b (dsDNA)
DNA 1: TCAAAACGTCGTGAGACAGTTTGG
DNA 2: CCAAACTGTCTCACGACGTTTTGA
modifications: 5mC at -2b
Kd (I-CreI wild type [1]): 40.8 nM

B4: C1221_1Me (dsDNA)
DNA 1: GGGGTCAAAACGTCGTACGACGTTTTGAGGGG
DNA 2: CCCCTCAAAACGTCGTACGACGTTTTGACCCC
modifications: 5mC at 1 CpG on both strands
activity (I-CreI D75N): ~3 fold increase of C50

B5: C1221_3Me (dsDNA)
DNA 1: GGGGTCAAAACGTCGTACGACGTTTTGAGGGG
DNA 2: CCCCTCAAAACGTCGTACGACGTTTTGACCCC
modifications: 5mC at 3 CpG on both strands
activity (I-CreI D75N): > 10 fold increase of C50

B6: C1221_2Me (dsDNA)
DNA 1: GGGGTCAAAACGTCGTACGACGTTTTGAGGGG
DNA 2: CCCCTCAAAACGTCGTACGACGTTTTGACCCC
modifications: 5mC at 2 CpG on both strands
activity (I-CreI D75N): > 10 fold increase of C50

B7: C1234 (dsDNA)
DNA 1: TCAAAACGTCGTGAGACAGTTTGG
DNA 2: CCAAACTGTCTCACGACGTTTTGA
Kd (I-CreI wild type [3]): ≤ 2.5 nM

B8: C1234_Me-5b/-2b (dsDNA)
DNA 1: TCAAAACGTCGTGAGACAGTTTGG
DNA 2: CCAAACTGTCTCACGACGTTTTGA
modifications: 5mC at -5b, -2b
Kd (I-CreI wild type [4]): > 1000 nM

B9: C1234_Me full (dsDNA)
DNA 1: TCAAAACGTCGTGAGACAGTTTGG
DNA 2: CCAAACTGTCTCACGACGTTTTGA
modifications: 5mC at -6a, -3a, -5b, -2b
Kd (I-CreI wild type [4]): > 1000 nM

B10: C1234_Me-5b (dsDNA)
DNA 1: TCAAAACGTCGTGAGACAGTTTGG
DNA 2: CCAAACTGTCTCACGACGTTTTGA
modifications: 5mC at -5b
Kd (I-CreI wild type [1]): 24 nM

B11: ADCY9.1_Me -3a/-2b (dsDNA)
DNA 1: CCCAGATGTCGTACAGCAGCTTGG
DNA 2: CCAAGCTGCTGTACGACATCTGGG
modifications: 5mC at -3a, -2b
Kd [5]: 431 nM

B12: ADCY9.1 (dsDNA)
DNA 1: CCCAGATGTCGTACAGCAGCTTGG
DNA 2: CCAAGCTGCTGTACGACATCTGGG
Kd [6]: 190 nM

B13: XPC4.1_Me -11a/-10b & +10a/+11b (dsDNA)
DNA 1: TCGAGATGTCACACAGAGGTACGA
DNA 2: TCGTACCTCTGTGTGACATCTCGA
modifications: 5mC at -11a, -10b, +10a, +11b
Kd [7]: 127 nM
